# Laboratory results taken from PMC4105751 (RNA, 2014).
# B1: N-terminal SPOUT domain of TrmJ of Sulfolobus acidocaldarius (SaTrmJ1-157) (domain or fragment, UniProt Q4JB16 1-157, looked up)
# chain: MTIRLVIVEPEGAYNLGFIARLVKNFLIDEFYVVNPKADINEAIKFSAKGSEVIEKMMKITNNFDDAIRDVDLKIATSSIADIKGDLLRKSIRPIDLERLIKDKKVAFIFGRESVGLTREEIAKSDFLLFIPANPEYPVLNLSHAVGIVLYELWRNR
# B2: C-terminal domain of TrmJ of Escherichia coli (EcTrmJ167-246) (domain or fragment, E. coli, UniProt P0AE01 167-246, looked up)
# chain: GEQVEHEETPYPLVDDLERFYGHLEQTLLATGFIRENHPGQVMNKLRRLFTRARPESQELNILRGILASIEQQNKGNKAE
# B3: N-terminal SPOUT domain of TrmJ of Escherichia coli (EcTrmJ1-164) (domain or fragment, E. coli, UniProt P0AE01 1-164, looked up)
# chain: MLQNIRIVLVETSHTGNMGSVARAMKTMGLTNLWLVNPLVKPDSQAIALAAGASDVIGNAHIVDTLDEALAGCSLVVGTSARSRTLPWPMLDPRECGLKSVAEAANTPVALVFGRERVGLTNEELQKCHYHVAIAANPEYSSLNLAMAVQVIAYEVRMAWLATQ
# Legend:
# [1] = molecular target: the molecule itself; test: crystal structure
# [2] = molecular target: the molecule itself; test: SAXS with inline size-exclusion chromatography
# [3] = molecular target: the molecule itself; test: crystal structure; remark: listed apart in the source
protein,measurement,setting,value
B1,stoichiometry N,[1],2
B2,stoichiometry N,[2],2
B3,stoichiometry N,[3],2
